Among the targets are HLA-B*08:01; HLA-B*07:02; HLA-A*26:01; HLA-A*68:02; HLA-B*44:02; HLA-B*40:01; HLA-A*02:03; HLA-A*02:06; HLA-A*24:02; HLA-B*15:01; HLA-A*30:02; HLA-A*32:01; HLA-A*23:01; HLA-A*68:01; HLA-A*30:01.
Holding throughout (experiment): IEDB peptide-MHC binding, purified MHC/competitive/radioactivity; filed as Kd, often an IC50 or EC50 that approximates it; ≥ and ≤ were set here for values at or beyond the usual limits of such assays
What all share (details): source organism: Lake Victoria marburgvirus - Angola2005

APFARVLNL: the Kd was 0.067 µM in the assay with HLA-B*08:01 and 0.00021 µM in the assay with HLA-B*07:02.
For EVASFKQAL, the results for the equilibrium dissociation constant (Kd) with HLA-A*26:01, in the assay with HLA-A*68:02 and with HLA-B*07:02 were 0.086 µM, 0.0027 µM and 0.25 µM, respectively.
For the sequence GEYAPFARV, the equilibrium dissociation constant (Kd) in the assay with HLA-B*44:02 came out at 0.214 µM; in the assay with HLA-B*40:01, 0.107 µM.
In the case of GLYPQLSAI, the results for the equilibrium dissociation constant (Kd) with HLA-A*02:03 and with HLA-A*02:06 were 0.0014 µM and 0.0069 µM, respectively.
For HYSPLILAL, in the assay with HLA-A*24:02, the Kd stood at 0.064 µM.
Turning to KVKNEVASF, the dissociation constant Kd in the assay with HLA-B*15:01 worked out at 0.0056 µM; with HLA-A*30:02, 0.158 µM; in the assay with HLA-A*32:01 it was 0.0029 µM.
For LIVKTVLEF, the figures for the Kd in the assay with HLA-A*23:01 and with HLA-B*15:01 were 0.109 µM and 0.0008 µM, respectively.
Consider TVLEFILQK, for which the figures for the equilibrium dissociation constant (Kd) in the assay with HLA-A*68:01 and in the assay with HLA-A*30:01 were 0.0022 µM and 0.365 µM, respectively.

For the origin of these results see the Immune Epitope Database (IEDB).
